From the supplement of paper PMC10598134
± gives the standard deviation.

Assay: collision cross section of modified peptide (TIMS, N2, iRT-aligned); higher = larger / more extended gas-phase ion
How it was run: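 Collision cross section was derived from the Mason-Schamp equation. Each value averages 1–3 technical replicates of the most abundant feature per charge state, measured on a timsTOF Pro/HT in dda-PASEF mode (nitrogen, ~2.4 mbar) after a 120-min nanoflow C18 gradient at 60 °C. Synthetic peptide pools (~100 fmol/µL in 2% acetonitrile/0.1% formic acid, iRT standard spiked 1:40) were identified with MaxQuant, and 1/K0 was calibrated with three reference ions and aligned run-wise to the median iRT peptide deviation.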

[1] = charge state: 2, modification: Trimethyl (K)
[2] = charge state: 3, modification: Trimethyl (K)
[3] = charge state: 2, modification: Biotin
[4] = charge state: 3, modification: HexNAc (ST)
[5] = charge state: 2, modification: Glutarylation
[6] = charge state: 2, modification: Succinyl
[7] = charge state: 2, modification: Crotonyl
[8] = charge state: 3, modification: Crotonyl
[9] = charge state: 3, modification: Methyl (R)
[10] = charge state: 2, modification: Acetyl (K)
[11] = charge state: 3, modification: Acetyl (K)
[12] = charge state: 2, modification: HexNAc (ST)
[13] = charge state: 2, modification: Phospho (Y)

Sequence: KYEEIDNAPEER [_K(GlyGly (K))YEEIDNAPEER_]
- collision cross section (charge state: 2, modification: GlyGly (K)): 416.44 ± 0.85 Å²
- collision cross section (charge state: 3, modification: GlyGly (K)): 499.05 ± 3 Å²

Sequence: GTITVSAQELKDNR [_GTITVSAQELK(Trimethyl (K))DNR_]
- collision cross section [1]: 442.48 ± 1 Å²
- collision cross section [2]: 479.04 ± 1.8 Å²

Sequence: TLDEILQEKK [_TLDEILQEK(Biotin)K_]
- collision cross section [3]: 403.31 Å²

Sequence: SYISSQTNDTHK [_SYIS(HexNAc (ST))SQTNDTHK_]
- collision cross section [4]: 474.05 ± 0.17 Å²

Sequence: AAQASDLEKIHLDEK [_AAQASDLEK(Trimethyl (K))IHLDEK_]
- collision cross section [1]: 457.14 Å²
- collision cross section [2]: 500.66 ± 1.6 Å²

Sequence: VFSIISSEKELK [_VFSIISSEK(Gluratylation)ELK_]
- collision cross section [5]: 415.44 ± 1.1 Å²

Sequence: LEQVEKELLR [_LEQVEK(Succinyl)ELLR_]
- collision cross section [6]: 384.25 ± 0.76 Å²

Sequence: VYIASSSGSTAIKK [_VYIASSSGSTAIK(Butyryl)K_]
- collision cross section (charge state: 2, modification: Butyryl): 422.89 ± 0.77 Å²
- collision cross section (charge state: 3, modification: Butyryl): 508.32 ± 2.9 Å²

Sequence: ITLSKHQNVQLPR [_ITLSK(Crotonyl)HQNVQLPR_]
- collision cross section [7]: 443.04 ± 1.2 Å²
- collision cross section [8]: 519.02 ± 26 Å²

Sequence: DVNAAIAAIKTK [_DVNAAIAAIK(hydroxyisobutyryl)TK_]
- collision cross section (charge state: 2, modification: hydroxyisobutyryl): 392.68 ± 15 Å²
- collision cross section (charge state: 3, modification: hydroxyisobutyryl): 466.43 ± 5.5 Å²

Sequence: LTEKELAEAASK [_LTEK(Trimethyl (K))ELAEAASK_]
- collision cross section [1]: 406.14 ± 0.61 Å²
- collision cross section [2]: 451.11 ± 2.4 Å²

Sequence: VGTASVLQPVKK [_VGTASVLQPVK(Biotin)K_]
- collision cross section [3]: 406.39 ± 1.1 Å²

Sequence: RGATPPAPPRR [_R(Methyl (R))GATPPAPPRR_]
- collision cross section [9]: 465.62 ± 0.37 Å²

Sequence: SLFFGGKGAPLQR [_SLFFGGK(Trimethyl (K))GAPLQR_]
- collision cross section [1]: 413.8 ± 0.016 Å²
- collision cross section [2]: 456.34 ± 1.8 Å²

Sequence: SLGEPAAGEGSAKR [_SLGEPAAGEGSAK(Acetyl (K))R_]
- collision cross section [10]: 382.38 ± 0.43 Å²
- collision cross section [11]: 484.93 ± 0.63 Å²

Sequence: SEASSEFAKK [_SEASSEFAK(Crotonyl)K_]
- collision cross section [7]: 355.23 ± 0.57 Å²

Sequence: DYSAPVNFISAGLKK [_DYSAPVNFISAGLK(Succinyl)K_]
- collision cross section [6]: 438.82 ± 0.97 Å²
- collision cross section (charge state: 3, modification: Succinyl): 533.85 ± 1.6 Å²

Sequence: FGVEAFSDCLR [_FGVEAFS(HexNAc (ST))DCLR_]
- collision cross section [12]: 398.33 ± 0.63 Å²

Sequence: TLDEILQEKK [_TLDEILQEK(Crotonyl)K_]
- collision cross section [7]: 381.71 ± 0.8 Å²
- collision cross section [8]: 444.38 ± 1.6 Å²

Sequence: DSINFLDHINGKK [_DSINFLDHINGK(Acetyl (K))K_]
- collision cross section [11]: 470.59 Å²

Sequence: GGGFGAHGRGR [_GGGFGAHGR(Methyl (R))GR_]
- collision cross section (charge state: 2, modification: Methyl (R)): 351.67 ± 1.1 Å²
- collision cross section [9]: 421.56 ± 5.3 Å²

Sequence: DDSFLGKLGGTLAR [_DDSFLGK(Gluratylation)LGGTLAR_]
- collision cross section [5]: 415.27 ± 0.59 Å²
- collision cross section (charge state: 3, modification: Glutarylation): 485.15 Å²

Sequence: CYYGSDTAGR [_CY(Phospho (Y))YGSDTAGR_]
- collision cross section [13]: 358.39 Å²

Sequence: TFGKAAGPSLSHTSGGTQSK [_TFGK(Methyl (K))AAGPSLSHTSGGTQSK_]
- collision cross section (charge state: 3, modification: Methyl (K)): 525.9 ± 1.3 Å²

Sequence: SITHSTVGSKGEK [_SITHSTVGSK(Malonyl)GEK_]
- collision cross section (charge state: 2, modification: Malonyl): 390.69 ± 2.2 Å²
- collision cross section (charge state: 3, modification: Malonyl): 440.36 ± 2.7 Å²

Sequence: AYILNLVK [_AY(Phospho (Y))ILNLVK_]
- collision cross section [13]: 363.28 ± 0.69 Å²

Sequence: ATVASSTQKFQDLGVK [_ATVASSTQK(Biotin)FQDLGVK_]
- collision cross section [3]: 460.81 ± 1.3 Å²
- collision cross section (charge state: 3, modification: Biotin): 516.43 ± 0.96 Å²

Sequence: DFDTALKHYDK [_DFDTALK(Dimethyl (K))HYDK_]
- collision cross section (charge state: 3, modification: Dimethyl (K)): 452.29 ± 1.2 Å²

Sequence: LGHYATQLQK [_LGHYAT(HexNAc (ST))QLQK_]
- collision cross section [12]: 388.93 ± 0.68 Å²
- collision cross section [4]: 446.62 ± 0.17 Å²

Sequence: YHEDIFGLTLR [_Y(Nitro (Y))HEDIFGLTLR_]
- collision cross section (charge state: 2, modification: Nitro (Y)): 391.96 ± 0.8 Å²
- collision cross section (charge state: 3, modification: Nitro (Y)): 465.92 ± 0.23 Å²

Sequence: HELQANCYEEVKDR [_HELQANCYEEVK(Acetyl (K))DR_]
- collision cross section [10]: 446.57 Å²
- collision cross section [11]: 495.42 ± 1.4 Å²

Sequence: TGPPGSTGSR [_TGPP(Hydroxyproline)GSTGSR_]
- collision cross section (charge state: 2, modification: Hydroxyproline): 312.97 ± 0.79 Å²

Sequence: TLHLSHLNRFPAR [_TLHLSHLNR(Methyl (R))FPAR_]
- collision cross section [9]: 503.65 Å²

Sequence: LQEKVESAQSEQK [_LQEK(Acetyl (K))VESAQSEQK_]
- collision cross section [10]: 412.85 ± 1.8 Å²
- collision cross section [11]: 502.13 ± 0.084 Å²
